{
  "source": "patent US20110117113A1",
  "about": "“IMMUNOGLOBULIN SINGLE VARIABLE DOMAIN DIRECTED AGAINST HUMAN CXCR4 AND OTHER CELL ASSOCIATED PROTEINS AND METHODS TO GENERATE THEM” (priority 2009, published 2011)",
  "molecules": {"B1": {"name": "238D2: monovalent anti CXCR4 Nanobody, SEQ ID NO: 2 (protein)", "VHH": "EVQLVESGGGLVQTGGSLRLSCAASGFTFSSYAMSWVRQAPGKGLEWVSGIKSSGDSTRYAGSVKGRFTISRDNAKNMLYLQMYSLKPEDTAVYYCAKSRVSRTGLYTYDNRGQGTQVTVSS", "modifications": "Nanobody"}, "B2": {"name": "Nanobody 238D4 (VHH)", "VHH": "EVQLMESGGGLVQAGGSLRLSCAASGRTFNNYAMGWFRRAPGKEREFVAAITRSGVRSGVSAIYGDSVKDRFTISRDNAKNTLYLQMNSLKPEDTAVYTCAASAIGSGALRRFEYDYSGQGTQVTVSS"}},
  "key": {"[1]": {"target": "T1, CXCR4 mutation library (Human CXCR4-short) (Homo sapiens, UniProt P61073, D187A/Y157C)", "T1 construct": "expressed in transfected cells; host or cells: HEK-293T, transient, 384-well", "T1 sequence (P61073 whole entry Y157C/D187A)": "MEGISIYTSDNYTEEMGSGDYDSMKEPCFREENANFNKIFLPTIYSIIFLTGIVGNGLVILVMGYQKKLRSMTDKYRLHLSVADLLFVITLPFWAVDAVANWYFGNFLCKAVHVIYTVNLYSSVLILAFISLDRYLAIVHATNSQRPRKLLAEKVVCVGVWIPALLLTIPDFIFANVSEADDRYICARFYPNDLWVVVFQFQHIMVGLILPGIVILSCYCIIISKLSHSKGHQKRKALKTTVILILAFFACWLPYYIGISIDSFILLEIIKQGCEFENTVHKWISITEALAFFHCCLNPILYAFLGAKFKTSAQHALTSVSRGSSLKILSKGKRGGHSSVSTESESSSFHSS", "assay": "Shotgun mutagenesis epitope mapping, immunofluorescence on CXCR4 mutation library in HEK-293T", "type": "binding", "details": "residue D187; mutations D187A, Y157C; normalized to wild type; 3 experiments (+/−range)", "excerpt": "Method: See e.g. Willis, et al. 2008. Virus-like particles as quantitative probes of membrane protein interactions. Biochemistry 47:6988-6990. In short, the method comprises the following steps:\nCreate comprehensive mutation library • Start with a cDNA in eukaryotic expression plasmid • Create library where every amino acid is individually mutated\nExpress each clone within living cells in 384-well microplates\nDetect structure and/or function of proteins\n• Parental plasmid: Human CXCR4-short (SEQ ID NO: 6, 352 amino acids) • Epitope tags: N-terminal Flag (to detect surface expression), C-terminal V5 (to detect full-length translation) • Cell types used for immunofluorescence assays: HEK-293T\nThe immunofluorescence assay conditions (to detect binding) were optimized for the nanbodies to be tested. In short, 384-well immunofluorescence (IF) assay using HEK-293T cells transiently was transfected with different concentrations of CXCR4 DNA. The plate was first incubated with different concentrations of either Nanobody 238D2 or 238D4, then with 9E10, and finally with Cy3. The commercially-available anti-CXCR4 MAb 12G5 was used as an IF control.\nMapping Nanobody Binding to CXCR4 Mutation Library: The entire library was screened in triplicate with each Nanobody. The data was background-subtracted and normalized to wild type reactivity and averaged across the repeats. Nanobody binding was plotted as a function of average surface expression, and measured by immunoreactivity of an N-terminal Flag epitope tag. Thresholds of 60% Flag and 30% Nanobody were used to identify critical clones. Using standard IF conditions, we identified 1 critical residue (2 critical clones). Using increased stringency assay conditions (high salt), we identified 5 additional residues (Tables C-3 and C-4)."}, "wildtype human CXCR4": {"target": "T2, wildtype human CXCR4 (Homo sapiens, UniProt P61073)", "T2 construct": "expressed in transfected cells; host or cells: Hek293T, transient, pcDNA3.1", "assay": "Footprint assay, flow cytometry binding to wildtype human CXCR4 on Hek293T cells", "details": "Myc-tag detection, 10 nM and 100 nM Nanobody, average n = 3, wild type used for normalization", "excerpt": "Based on the data from example 1.8, we introduced 3 single point-mutations in ECL2 of CXCR4 that allowed to discriminate between 238D2 and 238D4-like epitopes: V196E (specifically disturbing D2 binding)-SEQ ID NO: 20, D187V (specifically disturbing D4 binding)-SEQ ID NO: 21, F189V (disturbing binding of both D2 and D4)-SEQ ID NO: 19. […] For the epitope mapping, transient transfections of the three CXCR4 mutants and wildtype human CXCR4 in the pcDNA3.1 vector were done in Hek293T cells, after which Nanobody binding of different families was assessed by flow cytometry using detection of the Myc-tag, followed by secondary anti-mouse PE. Two concentrations of Nanobody were tested, 10 nM and 100 nM, and experiment was repeated with essentially the same results. Binding of the Nanobodies to HEK293T hCXCR4 cells was used for normalization using the following formulas:\nPercentage of binding to the mutant receptors was calculated for each Nanobody concentration, and a position was considered as critical when less than 25% residual binding (average of n=3) was observed (Table C-5). […] Nanobodies could be grouped according to their different binding patterns, not only in “238D2-like” or “epitope A binders” and “238D4-like” or “epitope B binders” but also into other new groups."}, "CXCR4 (N119A)": {"target": "T3, CXCR4 (N119A) (Homo sapiens, UniProt P61073, N119A)", "T3 construct": "expressed in transfected cells; host or cells: HEK293T, transient; membranes in A4, whole cells in A5", "T3 sequence (P61073 whole entry N119A)": "as the sequence (P61073 whole entry Y157C/D187A) above, with N119A, C157Y, A187D counted along it", "assay": "Competition binding with [125I]-CXCL12 on constitutively active CXCR4 mutant N119A", "details": "competition with [125I]-CXCL12 (40 pM)", "protocol": "Competition binding assay—Periplasmic fractions were screened in a competition binding assay using membranes from HEK293T cells transiently expressing CXCR4. In short, periplasmic extracts (1:10) or ligands were pre-incubated with membranes in binding buffer (50 mM HEPES (pH 7.4), 1 mM CaCl2, 5 mM MgCl2, 100 mM NaCl, 0.5% bovine serum albumin) supplemented with 0.5% BSA for 1 h at 22° C. before the addition of [^125I]-CXCL12 (40 pM) or [^125I]-238D2 (3 nM) or [^125I]-238D4 (3 nM) for additional 2 h at 22° C. […] Membranes were then harvested over polyethylenimine (0.5%)-treated Whatman GF/C filter plates and washed three times with ice cold binding buffer containing 500 mM NaCl. Plates were counted by liquid scintillation.\nCXCR4—specific Nanobodies behave as neutral antagonists or inverse agonists on constitutively active mutants of CXCR4—The CXCR4—specific monovalent Nanobodies 238D2 and 238D4 as well as their bivalent fusion products L3 and L8 were investigated on the constitutively active CXCR4 mutant N119A (equivalent to N3.35A in the Ballestros-Weinstein numbering of class A GPCRs). […] Despite of the large number of CAMs for other class A GPCRs and further efforts to generate additional CAMs for CXCR4 (Berchiche et al., 2007), the N119 mutants of CXCR4 remain the only known CAMs for this receptor. […] Methods: Preparation of membranes and competition binding experiments with [125I]-CXCL12 (40 pM) were performed as described before for wild type CXCR4 (vide supra)."}, "[2]": {"target": "T4, CXCR4 mutation library clone 1057 (K230E, S178R) (human, UniProt P61073 1-352)", "T4 chain": "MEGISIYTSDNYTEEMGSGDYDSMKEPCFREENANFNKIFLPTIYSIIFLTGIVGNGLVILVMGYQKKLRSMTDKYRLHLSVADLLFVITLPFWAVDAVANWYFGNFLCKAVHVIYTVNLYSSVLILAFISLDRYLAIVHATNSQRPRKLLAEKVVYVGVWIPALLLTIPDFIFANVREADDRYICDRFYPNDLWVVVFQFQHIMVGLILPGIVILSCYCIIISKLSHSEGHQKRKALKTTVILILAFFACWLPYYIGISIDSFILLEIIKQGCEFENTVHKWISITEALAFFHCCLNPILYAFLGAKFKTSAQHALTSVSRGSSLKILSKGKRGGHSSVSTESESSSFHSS", "assay": "immunofluorescence on HEK-293T expressing the clone, normalised to wild type"}},
  "note": "Entries after “also recorded” stand apart in the source; their conditions may differ.",
  "data": [
    {"molecule": "B1", "values": [
      {"measurement": "% immunofluoresence, clone 3728", "setting": "[1]", "value": "77.1 (18.2) %"},
      {"measurement": "HEK293T CXCR4 binding", "setting": "wildtype human CXCR4", "value": "+ (>75% binding to mutant rel. to hCXCR4)"},
      {"measurement": "binding affinities to CXCR4 (N119A) compared to wild type (in words)", "setting": "CXCR4 (N119A)", "value": "somewhat less compared to the wild type receptor"},
      {"measurement": "binding to CXCR4 (N119A) (in words)", "setting": "CXCR4 (N119A); highest nanobody test concentration 2 μM", "value": "able to bind to CXCR4 (N119A); also recorded: clearly bind to the mutant receptor"}
    ]},
    {"molecule": "B2", "values": [
      {"measurement": "% immunofluorescence", "setting": "[2]", "value": 11.4, "unit": "%"}
    ]}
  ]
}
